Target: mouse thrombomodulin (endogenous, lung) (mouse (endogenous in mouse lung)) (UniProt P15306)
UniProt P15306, sequence (P15306 17-577): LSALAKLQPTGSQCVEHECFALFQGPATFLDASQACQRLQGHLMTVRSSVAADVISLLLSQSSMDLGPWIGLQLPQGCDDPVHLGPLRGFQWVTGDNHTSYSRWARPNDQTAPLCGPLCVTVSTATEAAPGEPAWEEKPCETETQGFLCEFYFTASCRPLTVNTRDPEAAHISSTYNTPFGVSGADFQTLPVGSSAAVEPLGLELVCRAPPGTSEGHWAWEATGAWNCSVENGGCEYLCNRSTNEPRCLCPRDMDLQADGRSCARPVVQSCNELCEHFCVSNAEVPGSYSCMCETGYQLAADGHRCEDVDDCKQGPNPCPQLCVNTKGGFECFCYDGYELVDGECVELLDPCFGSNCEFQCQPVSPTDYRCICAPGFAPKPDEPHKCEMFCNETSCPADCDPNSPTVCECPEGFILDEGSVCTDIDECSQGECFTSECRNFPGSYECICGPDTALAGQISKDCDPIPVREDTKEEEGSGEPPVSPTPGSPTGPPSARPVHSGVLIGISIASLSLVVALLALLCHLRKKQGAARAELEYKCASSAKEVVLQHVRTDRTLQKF

“recombinant human His-tagged fragment of Angiopoietin-2 (ab220589, Abcam) (from UniProt O15123 19-496) (domain or fragment)” showed a tail bleeding time in mice 2 h after i.p. injection of 8 nmol human ANGPT2 of 50%.

From article PMC9220312
